Residue numbers refer to the chain shown, from its start. Names and notes keep the numbering of the source.
B1: P114AR5P74-A5 (designed binder, not shown: small tags and cut ends)
chain: LPAPKNLVVSRVTEDSARLSWTAPDAAFDSFWIRYDEVVVGGEAIVLTVPGSERSYDLTGLKPGTEYYVNILGVKGGSISVPLSAIFTT
B2: P114AR7P94-E5 (designed binder, not shown: small tags and cut ends)
chain: B1 chain with D36F, V38F, V39L, V40G, G41S, Y68A, L72M, S78R, I79V
B3: P114AR7P95-F10 (designed binder, not shown: small tags and cut ends)
chain: B1 chain with D36F, V38F, V39T, V40T, G41A, Y68V, L72M, V81P
B4: P114AR7P94-A3 (designed binder, not shown: small tags and cut ends)
chain: B1 chain with D36F, V38F, V39L, V40G, G41S, Y68V, L72M, S78K, V81P
B5: P114AR7P92-G8 (designed binder, not shown: small tags and cut ends)
chain: B1 chain with W32V, D36F, V38F, V39L, V40G, G41S, Y68V, N70Q, S78Y, V81I
B6: P114AR5P75-E9 (designed binder, not shown: small tags and cut ends)
chain: B1 chain with W32F, V38F, V39L, V40R, G41S, Y68W, N70T, S78L, I79V, V81T
B7: P114AR7P92-F6 (designed binder, not shown: small tags and cut ends)
chain: B1 chain with D36F, V38F, V39L, V40G, G41S, Y68V, S78G, I79L
B8: P114AR7P93-H9 (designed binder, not shown: small tags and cut ends)
chain: B1 chain with D36F, V38F, V39L, V40G, G41S, Y68V, N70Q, L72I, S78H, V81L
B9: P114AR7P93-G8 (designed binder, not shown: small tags and cut ends)
chain: LPAPKNLVVSRVTEDSARLSWTAPDAAFDSFWIRYFEFLGSGEAIVLTVPGSERSYDLTDLKPGTEYGVTINGVKGGRVSTPLSAIFTT
B10: ECB109 (designed binder, not shown: small tags and cut ends)
chain: MLPAPKNLVVSEVTEDSARLSWDDPHAFYESFLIQYQESEKVGEAIVLTVPGSERSYDLTGLKPGTEYTVSIYGVHNVYKDTNIRGLPLSAIFTTAPAPAPAPAPLPAPKNLVVSRVTEDSARLSWTAPDAAFDSFWIRYFEFLGSGEAIVLTVPGSERSYDLTGLKPGTEYVVNILSVKGGSISPPLSAIFTT
B11: ECB106 (designed binder, not shown: small tags and cut ends)
chain: B10 chain with S178G, S183K
B12: ECB94 (designed binder, not shown: small tags and cut ends)
chain: B10 chain with H26W, S178G, S183K
B13: ECB95 (designed binder, not shown: small tags and cut ends)
chain: B10 chain with H26W, L144V, S178G
B14: ECB108 (designed binder, not shown: small tags and cut ends)
chain: B10 chain with L144V, G145S, S146K, E148D, S178G
B15: ECB107 (designed binder, not shown: small tags and cut ends)
chain: B10 chain with L144V, S178G
B16: ECB96 (designed binder, not shown: small tags and cut ends)
chain: B10 chain with H26W, L144V, G145S, S146K, E148D, S178G
B17: ECB15 (designed binder, not shown: small tags and cut ends)
chain: B10 chain with H26W, I84M, L177M, S178G, S183K
B18: P54CR4-31 (designed binder)
chain: LPAPKNLVVSEVTEDSLRLSWTAPDAAFDSFLIQYQESEKVGEAINLTVPGSERSYDLTGLKPGTEYTVSIYGVLGSYVFEHDVMLPLSAEFTT
notes: not shown: C-terminal poly-histidine tag
B19: Bispecific Centyrin (83-H9) (designed binder)
chain: MLPAPKNLVVSEVTEDSARLSWDDPWAFYESFLIQYQESEKVGEAIVLTVPGSERSYDLTGLKPGTEYTVSIYGVHNVYKDTNMRGLPLSAIFTTGGGGSGGGGSGGGGSGGGGSMLPAPKNLVVSRVTEDSARLSWTAPDAAFDSFWIRYFEFLGSGEAIVLTVPGSERSYDLTGLKPGTEYVVQIIGVKGGHISLPLSAIFTT
B20: A3 K78S (designed binder)
chain: LPAPKNLVVSEVTEDSARLSWDDPWAFYESFLIQYQESEKVGEAIVLTVPGSERSYDLTGLKPGTEYTVSIYGVHNVYKDTNMRGLPLSAIFTTAPAPAPAPAPLPAPKNLVVSRVTEDSARLSWTAPDAAFDSFWIRYFEFLGSGEAIVLTVPGSERSYDLTGLKPGTEYVVNIMGVKGGSISPPLSAIFTT
B21: A3 L39S (designed binder)
chain: B20 chain with L143S, S182K
B22: A3 F38S (designed binder)
chain: B20 chain with F142S, S182K
B23: A3 F36S (designed binder)
chain: B20 chain with F140S, S182K
B24: A3 P81S (designed binder)
chain: B20 chain with S182K, P185S
B25: A3 W32S (designed binder)
chain: B20 chain with W136S, S182K
B26: A3 V68S (designed binder)
chain: B20 chain with V172S, S182K
B27: A3 G40S (designed binder)
chain: B20 chain with G144S, S182K
B28: A3 N70S (designed binder)
chain: B20 chain with N174S, S182K
B29: P114AR7P95-G7 (designed binder, not shown: small tags and cut ends)
chain: B1 chain with D36F, V38L, V39L, V40S, G41T, Y68V, L72M, V81P
B30: P114AR7P92-H5 (designed binder, not shown: small tags and cut ends)
chain: B9 chain with F36L, G40L, S41G, D60G, G68V, T70Q, N72M, R78T, T81P
B31: P114AR7P95-H8 (designed binder, not shown: small tags and cut ends)
chain: B1 chain with D36F, V38F, V40S, G41K, Y68V, L72M, V81P
B32: P114AR7P95-D4 (designed binder, not shown: small tags and cut ends)
chain: B9 chain with D60G, G68V, T70Q, N72L, R78Y, V79I, T81I

Target: recombinant human c-Met Fc chimera (human) (UniProt P08581)
Experiment: HGF competition (biotinylated HGF on coated c-Met-Fc)

Binder | IC50 [nM]
B1 | 5.2
B2 | 0.7
B3 | 1.4
B4 | 0.2
B5 | 1.6
B6 | 51.9
B7 | 2.2
B8 | 2.9
B9 | 1

Target: recombinant human c-Met Fc chimera (human) (UniProt P08581)
Experiment: SPR (ProteOn), protocol of Example 3

Binder | Kd [nM]
B10 | 2.1
B11 | 5.1
B12 | 4.3
B13 | 6.2
B14 | 25.5
B15 | 9
B16 | 22.1
B17 | 2.6

Target: T1, human EGFR (epidermal growth factor receptor) on cells (human, UniProt P00533 25-1210)
T1 construct: Endogenous EGFR of human tumor cell lines; also called HER-1; Erb-B1
Experiment: A431 cell binding, anti-His-Alexa488

Binder | EC50 [nM]
B18 | > 20000

Target: human c-Met (hepatocyte growth factor receptor) on cells (human, UniProt P08581 25-1390)
Experiment: cell-based or functional assay

Binder | IC50, inhibition of HGF-stimulated c-Met phosphorylation (relative pc-Met, RCLU) in H596 cells, +5 ng/mL HGF [+5ng/mL HGF), IC50 table] [nM]
B8 | 80.8
B19 | 0.0789

Target: recombinant human c-Met Fc chimera (human) (UniProt P08581)
Experiment: SPR, serine scan in the context of ECB15

Binder | Fold Change of KD against parent [fold] | Kd [nM] | koff [s⁻¹] | kon [M⁻¹ s⁻¹]
B20 | 0.75 | 0.3 | 0.00015 | 440000
B21 | 6.75 | 2.7 | 0.00127 | 475000
B22 | 1790 | 717 | 0.0323 | 45100
B23 | 68 | 27.2 | 0.00512 | 188000
B24 | 4.25 | 1.7 | 0.000536 | 321000
B25 | 74.5 | 29.8 | 0.0086 | 289000
B26 | 9 | 3.6 | 0.0012 | 329000
B27 | 4.25 | 1.7 | 0.00032 | 185000
B28 | 14.8 | 5.9 | 0.00249 | 425000

Target: recombinant human c-Met Fc chimera (human) (UniProt P08581)
Experiment: SPR (ProteOn), c-Met-Fc captured by anti-human Fc

Binder | Kd [nM]
B1 | 10.1
B2 | 4.2
B29 | 20
B3 | 4.2
B4 | 0.4
B30 | 11.6
B5 | 1
B6 | 45.8
B31 | 3.7
B32 | 0.4
B7 | 3.1
B8 | 3.3
B9 | 6.9

From patent US20140155325A1 (Janssen / Centocor, published 2014)
